Experimental findings from patent publication US20210139548A1 (published 2021) are described below.

To fix the notation:
T1: human neuropeptide Y2 receptor (human, UniProt P49146 1-381)
T1 construct: whole, on cells; also called hNPY2 receptor; hNPY2-R
T1 sequence (looked up): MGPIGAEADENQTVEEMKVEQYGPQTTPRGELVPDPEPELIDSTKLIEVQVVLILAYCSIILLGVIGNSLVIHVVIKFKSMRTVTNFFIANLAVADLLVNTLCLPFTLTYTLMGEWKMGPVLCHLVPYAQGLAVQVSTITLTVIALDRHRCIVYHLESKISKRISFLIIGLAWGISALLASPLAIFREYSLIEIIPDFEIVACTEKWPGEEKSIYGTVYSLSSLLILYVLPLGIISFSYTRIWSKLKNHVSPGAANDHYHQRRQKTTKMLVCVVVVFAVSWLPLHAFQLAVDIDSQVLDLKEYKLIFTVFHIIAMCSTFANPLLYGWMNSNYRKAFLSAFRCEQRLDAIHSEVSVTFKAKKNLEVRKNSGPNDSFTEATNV

B1: Compound 67 (peptide)
peptide: Isovaleryl-APEK([AEEA-AEEA-γGlu-C18 diacid])PEEDSAPEELQRYYVSLRHYYNWLTRQRY-NH2
SMILES: CC(C)CC(=O)N[C@@H](C)C(=O)N1CCC[C@H]1C(=O)N[C@@H](CCC(=O)O)C(=O)N[C@@H](CCCCNC(=O)COCCOCCNC(=O)COCCOCCNC(=O)CC[C@H](NC(=O)CCCCCCCCCCCCCCCCC(=O)O)C(=O)O)C(=O)N1CCC[C@H]1C(=O)N[C@@H](CCC(=O)O)C(=O)N[C@@H](CCC(=O)O)C(=O)N[C@@H](CC(=O)O)C(=O)N[C@@H](CO)C(=O)N[C@@H](C)C(=O)N1CCC[C@H]1C(=O)N[C@@H](CCC(=O)O)C(=O)N[C@@H](CCC(=O)O)C(=O)N[C@@H](CC(C)C)C(=O)N[C@@H](CCC(N)=O)C(=O)N[C@@H](CCCNC(=N)N)C(=O)N[C@@H](Cc1ccc(O)cc1)C(=O)N[C@@H](Cc1ccc(O)cc1)C(=O)N[C@H](C(=O)N[C@@H](CO)C(=O)N[C@@H](CC(C)C)C(=O)N[C@@H](CCCNC(=N)N)C(=O)N[C@@H](Cc1c[nH]cn1)C(=O)N[C@@H](Cc1ccc(O)cc1)C(=O)N[C@@H](Cc1ccc(O)cc1)C(=O)N[C@@H](CC(N)=O)C(=O)N[C@@H](Cc1c[nH]c2ccccc12)C(=O)N[C@@H](CC(C)C)C(=O)N[C@H](C(=O)N[C@@H](CCCNC(=N)N)C(=O)N[C@@H](CCC(N)=O)C(=O)N[C@@H](CCCNC(=N)N)C(=O)N[C@@H](Cc1ccc(O)cc1)C(N)=O)[C@@H](C)O)C(C)C
B2: Compound 69 (peptide)
peptide: Isovaleryl-APEK([AEEA-AEEA-γGlu-C18 diacid])PEEDSSAEELQRYYVSLRHYYNWLTRQRY-NH2
SMILES: CC(C)CC(=O)N[C@@H](C)C(=O)N1CCC[C@H]1C(=O)N[C@@H](CCC(=O)O)C(=O)N[C@@H](CCCCNC(=O)COCCOCCNC(=O)COCCOCCNC(=O)CC[C@H](NC(=O)CCCCCCCCCCCCCCCCC(=O)O)C(=O)O)C(=O)N1CCC[C@H]1C(=O)N[C@@H](CCC(=O)O)C(=O)N[C@@H](CCC(=O)O)C(=O)N[C@@H](CC(=O)O)C(=O)N[C@@H](CO)C(=O)N[C@@H](CO)C(=O)N[C@@H](C)C(=O)N[C@@H](CCC(=O)O)C(=O)N[C@@H](CCC(=O)O)C(=O)N[C@@H](CC(C)C)C(=O)N[C@@H](CCC(N)=O)C(=O)N[C@@H](CCCNC(=N)N)C(=O)N[C@@H](Cc1ccc(O)cc1)C(=O)N[C@@H](Cc1ccc(O)cc1)C(=O)N[C@H](C(=O)N[C@@H](CO)C(=O)N[C@@H](CC(C)C)C(=O)N[C@@H](CCCNC(=N)N)C(=O)N[C@@H](Cc1c[nH]cn1)C(=O)N[C@@H](Cc1ccc(O)cc1)C(=O)N[C@@H](Cc1ccc(O)cc1)C(=O)N[C@@H](CC(N)=O)C(=O)N[C@@H](Cc1c[nH]c2ccccc12)C(=O)N[C@@H](CC(C)C)C(=O)N[C@H](C(=O)N[C@@H](CCCNC(=N)N)C(=O)N[C@@H](CCC(N)=O)C(=O)N[C@@H](CCCNC(=N)N)C(=O)N[C@@H](Cc1ccc(O)cc1)C(N)=O)[C@@H](C)O)C(C)C
B3: Compound 70 (peptide)
peptide: Isovaleryl-APEK([AEEA-AEEA-γGlu-C18 diacid])PEEAASPEELQRYEVSLRHYYNWLTRQRY-NH2
SMILES: CC(C)CC(=O)N[C@@H](C)C(=O)N1CCC[C@H]1C(=O)N[C@@H](CCC(=O)O)C(=O)N[C@@H](CCCCNC(=O)COCCOCCNC(=O)COCCOCCNC(=O)CC[C@H](NC(=O)CCCCCCCCCCCCCCCCC(=O)O)C(=O)O)C(=O)N1CCC[C@H]1C(=O)N[C@@H](CCC(=O)O)C(=O)N[C@@H](CCC(=O)O)C(=O)N[C@@H](C)C(=O)N[C@@H](C)C(=O)N[C@@H](CO)C(=O)N1CCC[C@H]1C(=O)N[C@@H](CCC(=O)O)C(=O)N[C@@H](CCC(=O)O)C(=O)N[C@@H](CC(C)C)C(=O)N[C@@H](CCC(N)=O)C(=O)N[C@@H](CCCNC(=N)N)C(=O)N[C@@H](Cc1ccc(O)cc1)C(=O)N[C@@H](CCC(=O)O)C(=O)N[C@H](C(=O)N[C@@H](CO)C(=O)N[C@@H](CC(C)C)C(=O)N[C@@H](CCCNC(=N)N)C(=O)N[C@@H](Cc1c[nH]cn1)C(=O)N[C@@H](Cc1ccc(O)cc1)C(=O)N[C@@H](Cc1ccc(O)cc1)C(=O)N[C@@H](CC(N)=O)C(=O)N[C@@H](Cc1c[nH]c2ccccc12)C(=O)N[C@@H](CC(C)C)C(=O)N[C@H](C(=O)N[C@@H](CCCNC(=N)N)C(=O)N[C@@H](CCC(N)=O)C(=O)N[C@@H](CCCNC(=N)N)C(=O)N[C@@H](Cc1ccc(O)cc1)C(N)=O)[C@@H](C)O)C(C)C
B4: Compound 68 (peptide)
peptide: Isovaleryl-APEK([AEEA-AEEA-γGlu-C18 diacid])PEEEASPEELQAYYVSLRHYYNWLTRQRY-NH2
SMILES: CC(C)CC(=O)N[C@@H](C)C(=O)N1CCC[C@H]1C(=O)N[C@@H](CCC(=O)O)C(=O)N[C@@H](CCCCNC(=O)COCCOCCNC(=O)COCCOCCNC(=O)CC[C@H](NC(=O)CCCCCCCCCCCCCCCCC(=O)O)C(=O)O)C(=O)N1CCC[C@H]1C(=O)N[C@@H](CCC(=O)O)C(=O)N[C@@H](CCC(=O)O)C(=O)N[C@@H](CCC(=O)O)C(=O)N[C@@H](C)C(=O)N[C@@H](CO)C(=O)N1CCC[C@H]1C(=O)N[C@@H](CCC(=O)O)C(=O)N[C@@H](CCC(=O)O)C(=O)N[C@@H](CC(C)C)C(=O)N[C@@H](CCC(N)=O)C(=O)N[C@@H](C)C(=O)N[C@@H](Cc1ccc(O)cc1)C(=O)N[C@@H](Cc1ccc(O)cc1)C(=O)N[C@H](C(=O)N[C@@H](CO)C(=O)N[C@@H](CC(C)C)C(=O)N[C@@H](CCCNC(=N)N)C(=O)N[C@@H](Cc1c[nH]cn1)C(=O)N[C@@H](Cc1ccc(O)cc1)C(=O)N[C@@H](Cc1ccc(O)cc1)C(=O)N[C@@H](CC(N)=O)C(=O)N[C@@H](Cc1c[nH]c2ccccc12)C(=O)N[C@@H](CC(C)C)C(=O)N[C@H](C(=O)N[C@@H](CCCNC(=N)N)C(=O)N[C@@H](CCC(N)=O)C(=O)N[C@@H](CCCNC(=N)N)C(=O)N[C@@H](Cc1ccc(O)cc1)C(N)=O)[C@@H](C)O)C(C)C
B5: Compound 77 (peptide)
peptide: Isovaleryl-APEK([AEEA-AEEA-γGlu-C18 diacid])PEEDASEEELQRYYVELRHYYNWLTRQRY-NH2
SMILES: CC(C)CC(=O)N[C@@H](C)C(=O)N1CCC[C@H]1C(=O)N[C@@H](CCC(=O)O)C(=O)N[C@@H](CCCCNC(=O)COCCOCCNC(=O)COCCOCCNC(=O)CC[C@H](NC(=O)CCCCCCCCCCCCCCCCC(=O)O)C(=O)O)C(=O)N1CCC[C@H]1C(=O)N[C@@H](CCC(=O)O)C(=O)N[C@@H](CCC(=O)O)C(=O)N[C@@H](CC(=O)O)C(=O)N[C@@H](C)C(=O)N[C@@H](CO)C(=O)N[C@@H](CCC(=O)O)C(=O)N[C@@H](CCC(=O)O)C(=O)N[C@@H](CCC(=O)O)C(=O)N[C@@H](CC(C)C)C(=O)N[C@@H](CCC(N)=O)C(=O)N[C@@H](CCCNC(=N)N)C(=O)N[C@@H](Cc1ccc(O)cc1)C(=O)N[C@@H](Cc1ccc(O)cc1)C(=O)N[C@H](C(=O)N[C@@H](CCC(=O)O)C(=O)N[C@@H](CC(C)C)C(=O)N[C@@H](CCCNC(=N)N)C(=O)N[C@@H](Cc1c[nH]cn1)C(=O)N[C@@H](Cc1ccc(O)cc1)C(=O)N[C@@H](Cc1ccc(O)cc1)C(=O)N[C@@H](CC(N)=O)C(=O)N[C@@H](Cc1c[nH]c2ccccc12)C(=O)N[C@@H](CC(C)C)C(=O)N[C@H](C(=O)N[C@@H](CCCNC(=N)N)C(=O)N[C@@H](CCC(N)=O)C(=O)N[C@@H](CCCNC(=N)N)C(=O)N[C@@H](Cc1ccc(O)cc1)C(N)=O)[C@@H](C)O)C(C)C
B6: Compound 71 (peptide)
peptide: Isovaleryl-APEK([AEEA-AEEA-γGlu-C18 diacid])PEEEASPSELQRYYVSLRHYYNWLTRQRY-NH2
SMILES: CC(C)CC(=O)N[C@@H](C)C(=O)N1CCC[C@H]1C(=O)N[C@@H](CCC(=O)O)C(=O)N[C@@H](CCCCNC(=O)COCCOCCNC(=O)COCCOCCNC(=O)CC[C@H](NC(=O)CCCCCCCCCCCCCCCCC(=O)O)C(=O)O)C(=O)N1CCC[C@H]1C(=O)N[C@@H](CCC(=O)O)C(=O)N[C@@H](CCC(=O)O)C(=O)N[C@@H](CCC(=O)O)C(=O)N[C@@H](C)C(=O)N[C@@H](CO)C(=O)N1CCC[C@H]1C(=O)N[C@@H](CO)C(=O)N[C@@H](CCC(=O)O)C(=O)N[C@@H](CC(C)C)C(=O)N[C@@H](CCC(N)=O)C(=O)N[C@@H](CCCNC(=N)N)C(=O)N[C@@H](Cc1ccc(O)cc1)C(=O)N[C@@H](Cc1ccc(O)cc1)C(=O)N[C@H](C(=O)N[C@@H](CO)C(=O)N[C@@H](CC(C)C)C(=O)N[C@@H](CCCNC(=N)N)C(=O)N[C@@H](Cc1c[nH]cn1)C(=O)N[C@@H](Cc1ccc(O)cc1)C(=O)N[C@@H](Cc1ccc(O)cc1)C(=O)N[C@@H](CC(N)=O)C(=O)N[C@@H](Cc1c[nH]c2ccccc12)C(=O)N[C@@H](CC(C)C)C(=O)N[C@H](C(=O)N[C@@H](CCCNC(=N)N)C(=O)N[C@@H](CCC(N)=O)C(=O)N[C@@H](CCCNC(=N)N)C(=O)N[C@@H](Cc1ccc(O)cc1)C(N)=O)[C@@H](C)O)C(C)C

*1 amine or outer side, *2 acyl side, *3 side chain or, on linkers, in order; H or OH if unused. Side-chain parts run from the residue outwards. The star is where a group is joined. C18 diacid = O=C(O)CCCCCCCCCCCCCCCCC(=O)*; γGlu = O=C(O)[C@H](CCC(=O)[*:2])N[*:1]; Isovaleryl = CC(C)CC(=O)*; AEEA = NCCOCCOCC(=O)O

This test addresses T1, human neuropeptide Y2 receptor. Kind of test: radioligand competition (125I-PYY(1-36)), hNPY2R membranes. The gist of the method: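 Commercial human Y2 receptor membranes (0.5 μg protein/well) were incubated with peptide for 2 h at room temperature in 50 mM HEPES, 5 mM MgCl₂, 1 mM CaCl₂, pH 7.4, with 0.2% ovalbumin. Bound radioligand was separated on PEI-soaked GF/C filters and counted by scintillation, and IC₅₀ came from nonlinear sigmoidal regression.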
B1: affinity was put at a Ki of 4.37 nM.
Turning to B2, the Ki was determined as 5.74 nM.
The result for B3 reads 4.86 nM; that for B4, 8.47 nM; that for B5, 6.17 nM.
For the molecule B6, the Ki is 5.22 nM.

By Ki is commonly meant the dissociation constant of the complex between target and ligand, obtained from inhibition or displacement.
